# Measured values from US20030143237A1 (University of California, published 2003).
# B1: hAFP325-334, residues 325-334 of SEQ ID NO:2 (peptide)
# peptide: GLSPNLNRFL
# notes: One of the four 'dominant' AFP peptides; synthesized by standard techniques
# B2: hAFP542-550, residues 542-550 of SEQ ID NO:2 (peptide)
# peptide: GVALQTMKQ
# notes: as for B1
# B3: hAFP137-145, residues 137-145 of SEQ ID NO:2 (peptide)
# peptide: PLFQVPEPV
# notes: as for B1
# B4: hAFP158-166, residues 158-166 of SEQ ID NO:2 (peptide)
# peptide: FMNKFIYEI
# notes: as for B1
# Biological target: T1, HLA-A*0201 (human)
# T1 construct: MHC class I molecule on cells; detected by flow cytometry with anti-HLA-A2 antibody BB7.2; also called HLA-A2; A2.1
# Test: off-kinetics assay on acid-stripped HLA-A*0201 LCL pulsed with peptide and b2 microglobulin, flow cytometry of surface HLA-A2 (stable if MFI at least 1.5-fold over unpulsed cells)
# Procedure: Next, MHC-peptide complex stability was determined using an off-kinetics assay. […] Each peptide was immediately pulsed onto cells at […] for 1 hour in the presence of b2 microglobulin at 3 ug/ml at room temperature. Excess peptide was washed off and the cells were incubated at 37° C. for 0, 2, 4 and 6 hours. Cells were washed at the end of each time point and stained for cell surface HLA-A2 expression, then analyzed by flow cytometry.
row,Relative Off kinetics [h],Binder
1,2,B1
2,6,B2
3,4,B3
4,4,B4
